Results reported in patent publication US20070207532.

Columns and labels:
[1] = target: AGT mutant of Example 1 (GST fusion) Lys125Ala, Ala127Thr, Arg128Ala, Asn157Gly, Ser159Glu (Homo sapiens) (UniProt P16455); conditions: co-purified DNA estimated by A280/A260 after purification in 50 mM phosphate, 0.1 M NaCl, 1 mM DTT
[2] = target: PGEG-hAGT (GST fusion) Asn157Gly, Ser159Glu (Homo sapiens) (UniProt P16455); assay: inhibition; conditions: BG-Cy3 reaction rate with 25 ug/ml DNA
PGEG-hAGT (GST fusion) Asn157Gly, Ser159Glu (Homo sapiens), sequence (P16455 whole entry N157G/S159E, the tested form may be a part): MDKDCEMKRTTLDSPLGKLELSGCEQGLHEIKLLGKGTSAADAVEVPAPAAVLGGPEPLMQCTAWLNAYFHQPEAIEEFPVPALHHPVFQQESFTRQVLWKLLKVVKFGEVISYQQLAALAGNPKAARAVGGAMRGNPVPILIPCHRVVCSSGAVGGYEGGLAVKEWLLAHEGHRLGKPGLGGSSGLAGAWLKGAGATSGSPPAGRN

AGT mutant of Example 1 (GST fusion) Lys125Ala, Ala127Thr, Arg128Ala, Asn157Gly, Ser159Glu (Homo sapiens), sequence (P16455 whole entry K125A/A127T/R128A/N157G/S159E, the tested form may be a part): as the sequence (P16455 whole entry N157G/S159E, the tested form may be a part) above, with K125A, A127T, R128A counted along it

Row | Substance | binding signal [1] | activity (fold rate reduction) [2]
1 | co-purified E. coli DNA | > 10 fold reduced | –
2 | salmon sperm DNA | – | 5
